We go through 1 molecule from US20260137799A1, “ANTI-MUC1* ANTIBODY DRUG COMPLEXES AND USES THEREOF” (Minerva Biotechnologies Corporation, priority 2023, published 2026).

As usually defined, the IC50 is the concentration needed to halve the response being measured.

The subject of data set [1] is low MUC1* expressing, mCherry H1975 lung cancer cells. In words: Bystander killing of low antigen expressing cancer cells. The class given is cell-based, human. To be noted: 56 nM ADC; population contained 30% high MUC1* expressing H1975-MUC1*-GFP cells.
Data set [2] relates to T47D. In words: xCELLigence impedance cytotoxicity, T47D. To be noted: Example 9 (FIGS. 35-36); average over batches for DXd ADCs; read-out: IC50 for killing of breast cancer T47D-wt cells. The class given is cell-based, human. A digest of the protocol: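 Adherent target cells plated at 5000/well on electrode plates were grown 24 h, then exposed to serially diluted ADCs in growth medium at 37° C/5% CO2. Killing was followed as real-time impedance loss over 40-120 h, normalized to 1% triton or 1 μM Taxol as 100% kill.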

In data set [3] the target is MUC1*45 (UniProt P15941 1110-1255). In words: cell-based or functional assay.
Data set [4] concerns T47D-MUC1*. In words: xCELLigence impedance cytotoxicity, T47D-MUC1*. The data set is classed as cell-based, human. To be noted: Example 9 (FIGS. 35-36); read-out: IC50, T47D cells engineered to express more MUC1*45. On the procedure: (§1) An xCELLigence RTCA MP Instrument (Agilent) was used to assess real-time killing of target cancer cells). In the xCELLigence system, target cancer cells, which are adherent, are plated onto electrode array 96-well plates. Adherent cells insulate the electrode and increase the impedance. The number of adherent cancer cells is directly proportional to impedance. […] Therefore, increasing impedance reflects the growth of the cancer cells and decreasing impedance reflects the killing of the cancer cells.
(§2) Target Cancer cells (Table 9) were seeded onto a multi-electrode well plate at a density of 5000 cells/well (100 μL of a 50,000 cells/mL stock) and incubated for 24 hr in a 37° C./5% CO2 incubator. ADCs were prepared as a 2× solution in corresponding growth media and 100 μL of each concentration was added to target cells. As a positive control (100% cell killing) cells were treated with either 1% triton or 1 μM Taxol instead of ADC. After 40-120 hours incubation in a 37° C./5% CO2 incubator cell killing was assessed. In this assay, impedance is measured in real-time. When the adherent cancer cells are killed and come off the electrode surface, impedance (insulation) decreases.

The subject of data set [5] is H2110-wt lung cancer cell line. In words: xCELLigence impedance cytotoxicity, H2110. The data set is classed as cell-based, human. To be noted: Example 9 (FIGS. 35-36); read-out: IC50, lung cancer H2110-wt cells. On the procedure: as §1, §2
(§3) To directly compare the C2 and 3C2B1 anti-MUC1* antibodies as ADC targeting domains, a panel of MUC1* positive cancer cell lines representing different cancer types were treated with C2-deruxtecan versus 3C2B1-deruxtecan (FIG. 35) or C2-MC-VA-PAB-exatecan versus 3C2B1-MC-VA-PAB-exatecan (FIG. 36). In some cases, the cancer cells were engineered to express high levels of MUC1*45.

Data set [6] concerns breast cancer, pancreatic cancer, and lung cancer cell lines. In words: Cytotoxicity of ADCs with additional linkers and toxins (FIGS. 30-31). The class given is cell-based. To be noted: breast cancer, pancreatic cancer, and lung cancer cells. On the procedure: FIG. 30 is a table showing cytotoxicity of the indicated MUC1* ADCs against indicated cancer cells. IC50 values were determined from xCELLigence data. FIG. 30 discloses “GGFG” as SEQ ID NO: 160, “GGGG” as SEQ ID NO: 161, “GGVA” as SEQ ID NO: 162, “GGVG” as SEQ ID NO: 163.
FIG. 31 is a table showing cytotoxicity of the indicated MUC1* ADCs against indicated cancer cells. IC50 values were determined from PrestoBlue data.
An anti-MUC1* antibody was conjugated to several toxins via a number of different linkers (compounds VIII-XXII).

Data set [7] relates to MUC1* negative HEK-293-TN cells. In words: Bystander killing of non-target cells. The data set is classed as cell-based. On the procedure:
The cell population was doped with H1975-MUC1*45-GFP cells as indicated. FIGS. 31A1-31A20 show the effect of C2-MC-GGFG-AM-DXd (SEQ ID NO: 160) on the non-target cells. […] FIGS. 31C1-31C20 show the effect of C2-MC-VA-PAB-exatecan on the non-target cells.
FIGS. 33A-33H show graphs of the integrated pixel density of non-target cancer cells as a function of doping cell population with cells expressing high amounts of MUC1*45. FIGS. 33A-33D show the effect when the cells were treated with C2-MC-GGFG-AM-DXd (SEQ ID NO: 160). FIGS. 33E-33H show the effect when the cells were treated with C2-MC-VA-PAB-exatecan.
In another experiment, we investigated the killing of off-target cells (MUC1* negative HEK-293-TN cells) as well as low antigen expressing target cells (H1975 lung cancer) due to a “bystander” effect (FIGS. 32A1-32D20, FIGS. 33A-33H and FIGS. 34A-34H). To assess the killing of non-target cells adjacent to cells with high MUC1* expression, we doped non-target cells expressing an mCherry marker with varying percentages of target cells that express GFP. 56 nM C2-MC-VA-PAB-exatecan killed nearly all the neighboring non-target cells when the cell population was doped with 30% of the high antigen expressing target cells (FIG. 32C17). […]

For data set [8], the system named is CFPAC1-wt pancreatic cancer cell line. In words: xCELLigence impedance cytotoxicity, CFPAC1. The data set is classed as cell-based, human. To be noted: Example 9 (FIGS. 35-36); read-out: IC50, CFPAC1-wt pancreatic cancer cells. On the procedure: as §1, §2, §3
Data set [9] has as its system NCI-H1975. In words: xCELLigence impedance cytotoxicity, NCI-H1975. The class given is cell-based, human. To be noted: Example 9 (FIGS. 35-36); read-out: IC50 for killing of H1975-wt cells. On the procedure: as §1, §2

B1: C2-MC-VA-PAB-exatecan (antibody, mouse IgG1, kappa)
VH: EVQLEESGGGLVKPGGSLKLSCAASGFTFSGYAMSWVRQTPEKRLEWVATISSGGTYIYYPDSVKGRFTISRDNAKNTLYLQMSSLRSEDTAMYYCARLGGDNYYEYFDVWGAGTTVTVSSAKTTPPSVYAKTTPPSVYPLAPGSAAQTNSMVTLGCLVKGYFPEPVTVTWNSGSLSSGVHTFPAVLQSDLYTLSSSVTVPSSTWPSETVTCNVAHPASSTKVDKKIVPRDCGCKPCICTVPEVSSVFIFPPKPKDVLTITLTPKVTCVVVDISKDDPEVQFSWFVDDVEVHTAQTQPREEQFNSTFRSVSELPIMHQDWLNGKEFKCRVNSAAFPAPIEKTISKTKGRPKAPQVYTIPPPKEQMAKDKVSLTCMITDFFPEDITVEWQWNGQPAENYKNTQPIMDTDGSYFVYSKLNVQKSNWEAGNTFTCSVLHEGLHNHHTEKSLSHSPGK
VL: DIVITQSTASLGVSLGQRATISCRASKSVSTSGYSYMHWYQQRPGQPPKLLIYLASNLESGVPARFSGSGSGTDFTLNIHPVEEEDAATYYCQHSRELPFTFGGGTKLEIKRADAAPTVSADAAPTVSIFPPSSEQLTSGGASVVCFLNNFYPKDINVKWKIDGSERQNGVLNSWTDQDSKDSTYSMSSTLTLTKDEYERHNSYTCEATHKTSTSPIVKSFNRNEC
modifications: MC-VA-PAB-exatecan on reduced cysteine thiols of the antibody, sites not stated; MC-VA-PAB-exatecan on reduced cysteine thiols of the antibody, sites not stated; DAR 5.1
In the case of B1, in data set [1], the “low MUC1* expressing cancer cells killed” value is given as “about 75%”. The IC50 was 44 nM in data set [2]; 4 nM in [4]; 60 nM in data set [5]; 51 nM in data set [8]; 117 nM in [9]. The “IC50, killing of H1975 cells engineered to express MUC1*45 (xCELLigence)” value in data set [3] was determined as 9 nM. In addition, the “activity compared to deruxtecan ADC” value in data set [6] is on record as “enhanced activity”. For the same molecule, the “killing of neighboring non-target cells” value in data set [7] (56 nM ADC, population doped with 30% H1975-MUC1*45-GFP target cells, 120 hours) is “nearly all”. Moreover, the non-specific cytotoxicity entry in [7] (pure populations of non-target HEK-293-TN cells) is listed as “limited amount of non-specific cytotoxicity”.
